Measured values taken from the DeepSol protein solubility set.

assay: soluble on expression in E. coli; label from the status in PepcDB or PDB records

Sequence | soluble on expression in E. coli
MEELKELRKEIDRIDEEILRLLNERAKLAKRIGEIKSKANLPIHVPEREREIFEKILRLNKEVYGGVFPQEALVHIYREIISACLSLEKKIKVAYLGPKATFTHQAALEFFGFSAHYTPCSTIRDVFVEVETKRADYGVVPVENTIEGVVNYTLDMFLESDVKIAGEIVIPITLHLLSASDSIENVEKVYSHKMALAQCRSWLEKNLPSVQVIEVESTAKACEIALEDERAGAVASEVAAYTYHLNILARNIQDSGDNFTRFLVIAKRDLKPTGSDKTSILFGVKDEPGALYKALEVFYKHGINLTKIESRPSKKKAWDYVFFVDLEGHKEEERVEKALKELKEKTQFLKVLGSYPKALLQE | soluble
MEENTEQRVDLTLFSEKIQELKDQIASVIVGQEQTVDLVLAAILANGHVLIEGVPGVAKTLLARLTARLIDADFSRIQFTPDLMPSDVLGTTVFNMKTNDFDFHQGPIFADIVLVDEINRAPAKTQAALFEVMEERQISIDGITHKMGELYTILATQNPVEQEGTYKLPEAQLDRFLMKITMDYPSLEEEVDILERHHTNASLIKLDDIKPAITKEELLSLRAFMNQVFVDRTLLQYIALIVQQTRTSKAVYLGASPRASVAMLQASKAYALLQGRDFVTPEDIKFVAPYVLQHRLILTAEAEMEGYSPVKVTQRLIDKVEVPKLEHHHHHH | soluble
MEESDQTVLLPNVENEIGSFYHDMPDEKLLRHIKAIFDEASLRPSLTKNVPSTSSQVTEELNKVEIRDPKHEMQDEQYLSIFENPSGVQYNQADGSFSWNNRFHSDNSVQYINVLNNYGCEGADTLLNQSDSSDETDESIEERRTPRGNRQSRSNLTSKPSAKYWTKRGGDPIVNCSCSICGSKFSTIRCLLDHRHQEHSLKDMMMCGLCGKEFSKRTHIYLHLSQEYKVYHCDGCNTSFASKWHLEKHRCKENETIDDKKRRRTGRVNAEEIKVIKEEIQDEEFGGVVLSNENHEKSKEDRFQFACVLCGKKYQHYHWLLKHRTKCLETTDEIQEFKCNVCYRRYNSSFWFERHMEKCNSSTALPPALLDQTISCPNCHKKYQNEYWFDYHKKHCPDITPALSDVHLDVNSLRDRRPREGEISVVPDVNLFGIEPEREDDNDDDEDADATISSSSSSTGNLVNIPCSICGKFCVGVASLLHHRKQIHGLTAMLTCGVCTKKFNTLSSIRRHMSMEYSIFRCQQCGRNCIDRTTLDRHECFKPYKIRDKRLFNIQNISVLKCPDCRATFANLNVLSEHRKTCQYGNVFDNIQQPGSSSLRQHHRSDTNGAALQRKITSRVRLDSNTPEKWTCRDCHASFHNLQALCSHRHESHGKEMFQCNNCSETLPNYRALHDHNMMHCRNNRSTNETTTRRYSEEDINYDYMDNVQIFVVEESEIFIPIQPHFSRK | not soluble
MEETRPIDGLTDEDIREILTRYKKIALVGASPKPERDANIVMKYLLEHGYDVYPVNPKYEEVLGRKCYPSVLDIPDKIEVVDLFVKPKLTMEYVEQAIKKGAKVVWFQYNTYNREASKKADEAGLIIVANRCMMREHERLLGEK | soluble
